Assay: yeast display, Sf9 membrane polyspecificity reagent, FACS + sequencing; frameworks hold sequencing errors
Procedure, shortened: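 Nanobodies came from a synthetic yeast display library in Saccharomyces cerevisiae BJ5465, induced with galactose for 36–48 hours and stained for 1 hour at 4 °C with 10% biotinylated, detergent-solubilized Sf9 membrane reagent. Cells were enriched on streptavidin microbeads and then FACS-sorted, with low and high (top ~1%) gates set on anti-HA fluorescence for expression and streptavidin fluorescence for reagent binding. Each polyreactivity label reflects the gate a clone came from. Genes were amplified by colony PCR, sequenced by MiSeq 2 × 250 and filtered by CDR length.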

Row | Sequence | polyreactivity (PSR sort gate)
1 | QVQLVESGGGLVQAGGSLRLSCAASGITFDGYAMGWNTQAPGKEREFVAAITWNGGSTYYADSVKGRFTISRDNAKNTVYLQMNSLKPEDTAVYYCNADPFTGYDYWGQGTQVTVSS | low polyreactivity
2 | QVQLVESGGGLVQAGGSLRLSCAASGITFDHYAMGWYRQAPGKEREFVAAIDDIGGDTYYADSVKGRFTISRDNAKNTVYLQMNSLKPEDTAVYYCAADYGYYSRFYYWGQGTQVTVSS | low polyreactivity
3 | QVQLVESGGGLVQAGGSLRLSCAASGITFDLYVMGWYRQAPGKERDLVAAINRGTSTYYADSVKGRFTISRDNAKITVYLQMNSLKPEDTAVYYCAADSGGVALYRYDYWGKGTQVTVSS | low polyreactivity
4 | QVQLVESGGGLVQAGGSLRLSCAASGITFDNNAMGWYRQAPGKEREFVADIDGSGGSTYYADSVKGRFTISRDNAKNTVYLQMNSLKPEDTAVYYCNAGYVHSFDYWGQGTQVTVSS | low polyreactivity
5 | QVQLVESGGGLVQAGGSLRLSCAASGITFDSYAMGWNRQAPGKERELVAAISYSGGSTYYADSVKGRFTISRDNAKNTVYLQMNSLNPEDTAVYFCAAGSDDDYDYWGQGTQVTVSS | low polyreactivity
6 | QVQLVESGGGLVQAGGSLRLSCAASGITFDTYAMGCYIQAPGKERELVAAISKSGGSTYYADSVKGRFTISRDNAKNTVYLQMNSLKPEDTAVYYCNARYRNSGRYWDWYYYWGQGTQVTVSS | high polyreactivity
7 | QVQLVESGGGLVQAGGSLRLSCAASGITFDYYAMGWYRQAPGIERELVAAIDDSGGSTYYADSVKGRFTISRDNAKNTVYLQMNSLKPEDTAVYYCAAEFFYYEYDYWGQGTQVTVSS | high polyreactivity
8 | QVQLVESGGGLVQAGGSLRLSCAASGITFDYYAMGWYRQAPGKERELVAAIDTGGSTNYADSVKGRFTISRDNAKNTVYLQMNSLKPEDTAVYYCAKDPHGSDFGYWGQGTQVTVSS | low polyreactivity
9 | QVQLVESGGGLVQAGGSLRLSCAASGITFDYYAMGWYRQAPGKERELVAAISWGGGSTYYADSVKGRFTISRDNAKNTVYLQMNSLKPEDTAVYYCAADIVSSPSSYVPPGDYWGQGTQVTVSS | low polyreactivity
10 | QVQLVESGGGLVQAGGSLRLSCAASGITFDYYAMGWYRQAPGKERELVAAISWGGGSTYYADSVKGRFTISRDNAKNTVYLQMNSLKQEDTAVYYCAAVIVYSPSSYVRPGDYWGQGTQVTVSS | low polyreactivity
11 | QVQLVESGGGLVQAGGSLRLSCAASGITFDYYAMGWYRQAPGKERELVAAISYSGGSTYYADSVKGRFTISRDNAKNTVYLQMNSLKPEDTAVYYCAAETFTISSDYYYWGQGTQVTVSS | low polyreactivity
12 | QVQLVESGGGLVQAGGSLRLSCAASGITFDYYAMGWYRQAPGKERELVAAITSVGNTYYADSVKGRFTISRDNAKNTVYLQMNSLKPEDTAVYYCNALSFYSLVSFDYWGQGTQVTVSS | low polyreactivity
13 | QVQLVESGGGLVQAGGSLRLSCAASGITFDYYAMGWYRQSPGKERELVAAISYSAGSTYYADSVKGRFTISRDNAKNTVYLQMNSLKPEDTAVYYCAAETFTISSDYYYWGQGTQVTVSS | low polyreactivity
14 | QVQLVESGGGLVQAGGSLRLSCAASGITFDYYDMGWYRQAPGKERELVATITSDGSTYYADSVKGRFTISRDNAKNTVYLQMNSLKPEDTAVYYCNARRRTVPYRYDYWGQGTQVTVSS | high polyreactivity
15 | QVQLVESGGGLVQAGGSLRLSCAASGITFDYYGMGWYRQAPGKERELFASITSGGSTNYADSVKGRFTISRDNAKNTVYLQMNSLKPEDTAVYYCNAEFWEVSPDPRDYDYWGQGTQVTVSS | low polyreactivity
16 | QVQLVESGGGLVQAGGSLRLSCAASGITFDYYSMGWYRQAPGTERELVAAISWGGGSTYYADSVKGRFTISRDNAKNTVYLQMNSLKPEDTAVYYCAADIVSSPSSYVPPGDYWGQGTQVTVSS | low polyreactivity
17 | QVQLVESGGGLVQAGGSLRLSCAASGITFDYYVMGWYRQAPGKERELVAAISWSGGTTYYADSVKGRFTISRDYAKNTVYLQMNSLKPEDTAVYYCNAEHTGSFYGGYPWEMEYWGQGTQVTVSS | low polyreactivity
18 | QVQLVESGGGLVQAGGSLRLSCAASGITFEANTMGWYRQAPAKERELVAVITDTGSTNYADSVKGRFTISRDNAKNTVYLQMNSLKPEDTAVFYCKADAEPSSGTSAKNDYWGQGTQVSVSS | low polyreactivity
19 | QVQLVESGGGLVQAGGSLRLSCAASGITFEGYALGWYRQAPGKERELVAAIRSSGTSTYYADSVKGRFTISRDIAKNTVYLQMNSLKPEDTAVYYCNRARSSSRYDYWGQGTQVTVSS | low polyreactivity
20 | QVQLVESGGGLVQAGGSLRLSCAASGITFEPYDMGWYRQAPGKERELVAAISTTGGRTYYADSVKGRFTISRDNAKNTVYLQMNSLKPEDTAVYYCAARYTTRRRYDYWGQGTQVTVSS | high polyreactivity
21 | QVQLVESGGGLVQAGGSLRLSCAASGITFESNAMGWYRQAPGKEREFVAAISYDGGDTYYADSVKGRFTISRDNAKNTVYLQMNSLKPEDTAVYYCAAEPGWTMDYWGQGTQVTVSS | low polyreactivity
22 | QVQLVESGGGLVQAGGSLRLSCAASGITFEVYAMGWYRQAPGKERELVAVITSVGSTNYADSVKGRFTISRDNAKNTVYLQMNSLKPEDTAVYYCASEKWTVRRFNPYTYYRYDYWGQGTQVTVSS | low polyreactivity

Row | Sequence | polyreactivity (PSR sort gate)
23 | QVQLVESGGGLVQAGGSLRLSCAASGITFFDYAMGWYRQAPGKERELVAAIDLSDGRTYYADSVKGRFTISRDNAKNTVYLQMNSLKPEDTAVYYCARQHEDYGYYWYYWYDYDYWGQGTQVTVSS | low polyreactivity
24 | QVQLVESGGGLVQAGGSLRLSCAASGITFFENAMGWYRQAPGKERELVAASSYSGGSTYYADSVKGRFTISRDNAKNTVYLQMYRLKPEDTAVYSCAADWYNFLYIRNRWGYGYWGQGSQVTVSS | high polyreactivity
25 | QVQLVESGGGLVQAGGSLRLSCAASGITFFFNAMGWYRQAPGKERELVAAITSGAGSTYYADSVKGRFTISRDNAKITVYLQMNSLKPEDTAVYYCASEWSYGGMDYWGQGTQVNVSS | low polyreactivity
26 | QVQLVESGGGLVQAGGSLRLSCAASGITFFGYAMGWYREAPGKERELVAGISRSTGRTYYADSVKGRFTISRDNAKNTVYLQMNILKPEDTAVYYCAARATRSLSRYMDYWGQGTQVTVSS | high polyreactivity
27 | QVQLVESGGGLVQAGGSLRLSCAASGITFFLYAMGWYRQAPGKERELVAVISASGGSTYYADSVKGRFTISRDNAKNTVYLQMNSLKPEDTAVYYCAAGYRFYGFYALYYWGQGTQVTVSS | high polyreactivity
28 | QVQLVESGGGLVQAGGSLRLSCAASGITFFPYAMGWYIQAPGKERELVADITWRGGRTYYADSVKGRFTISRDNAKNTVYLQMNSLKPEDTAVYYCAKVARQNWFRYNYDYWGQGTQVTVSS | high polyreactivity
29 | QVQLVESGGGLVQAGGSLRLSCAASGITFGANAMGWYRQAPGKERELVAHITWSGGDTYYADSVKGRFTISRDNAKNTVYLQMNSLKPEDTAVYYCNALQPGLGSPLGEYDYWGQGTQVTVSS | low polyreactivity
30 | QVQLVESGGGLVQAGGSLRLSCAASGITFGGYAMGWYRKAPGKERELVAAITSSGGITYYADSVKGRFTISRDNAKKTVYLLLNSLKPEDTAVYYCAKVPLEIVTIRDDEDYWGQGTQVTVSS | low polyreactivity
31 | QVQLVESGGGLVQAGGSLRLSCAASGITFGKYAMGWYRQAPGKERELVAAISWSGGSTYYADSVKGRFTISRDNAKNTVYLQMNSLKPEDTAVYYCAASYPYRRGEFYYYRSSDDDYWGQGTQVTVSS | high polyreactivity
32 | QVQLVESGGGLVQAGGSLRLSCAASGITFGPNAMGWYRQAPGKERELVAAISWRGGSTYYADSVKGRFTISRDNAKNTVYLQMNSLKPEDTAVYYCAKVQIPASYIRYDYWGQGTQVTLSS | low polyreactivity
33 | QVQLVESGGGLVQAGGSLRLSCAASGITFGRKTMGWYRQAPGKERELVAAIDSGGNTYADSVKGRFTISRDNAKNTVYLQMNSLKPEDTAVYYCAVDGGVFSSYGYWGQGTLVTVSS | low polyreactivity
34 | QVQLVESGGGLVQAGGSLRLSCAASGITFGRNTMGWYRQAPGKERELVAAIDSGGNTYADSVKGRFTISRDNAKNTVYLQMNSLKPEDSAVYYCAVDGGEFSSYGYWGQGTQVTVSS | low polyreactivity
35 | QVQLVESGGGLVQAGGSLRLSCAASGITFGSYAMGWYRQAPGKERELVAAINSRGSRTYYADSVKVRFTISRDNAKNTVYLQMNSLKPEDTAVYYCAASNSHVGPNDYWGQGTQVTVSS | high polyreactivity
36 | QVQLVESGGGLVQAGGSLRLSCAASGITFGVYARGWYRQAPGKEREFVADIDRTRGSTYADSVKGRFTISRDNAMNTVYLQMNSLKPEDTAVYYCAAGWGFRFYYWYWGQGTHVTVSS | high polyreactivity
37 | QVQLVESGGGLVQAGGSLRLSCAASGITFGWYAMGWYRQAPGKERELVAAITWDGGSTYYADSVKGRFTFSRDNAKNTVYLQMNSLKPEDTAVYYCAAEYIYYYYLVARDYWGQGTQVTVSS | high polyreactivity
38 | QVQLVESGGGLVQAGGSLRLSCAASGITFGYNAMGWYRQAPGKERELVAAISWRVGSTSYADSVKGRFTISRDNAKNTVYLQMNSLKPEDTAVYYCAAVRYNYNFKMYYWGQGTQVTVSS | high polyreactivity
39 | QVQLVESGGGLVQAGGSLRLSCAASGITFGYNTMGWYRQAPGKERELVAAISGSGGRTYYADSLKGRFTISRDNSKNTVYLQMNSLKPEDTAVYYCAARWPIWSSLYDYWGQGTQVTVSS | high polyreactivity
40 | QVQLVESGGGLVQAGGSLRLSCAASGITFGYYAMGWYRQAHGKERELVAAITYSGGSTYYADSVKGRFTISRDNAKNTVYLQMNSIKPEDTAVYYCAADDGYTYYWAGYDSWGQGTQVSVSS | low polyreactivity
41 | QVQLVESGGGLVQAGGSLRLSCAASGITFHRYAMRWYRQAPGKERELVAAINGGGGSTYYADSVKGRFTISRDNAKNTVYLQMNSLKPEDTAVYYCAAEVQNGVHIYDYWGQGTQVTVSS | high polyreactivity
42 | QVQLVESGGGLVQAGGSLRLSCAASGITFIINAMGWYRQAPGKERELVAAISWRGGNTHYADSVKGRFTISRDYAKNTVYLQLNSLKAEVTAVYYCAARVTSRRDPDQKHGYWGQGTQVTVSS | high polyreactivity
43 | QVQLVESGGGLVQAGGSLRLSCAASGITFIQYAMGWYRQAPGKERELVAAISSGGRTYYADSVKGRFTISRDNAKNTVYLQMNSLKPEDTAVYYCARDIQHYGGDSWGQGTQVTVSS | low polyreactivity

From the nanobody polyreactivity screen of Harvey et al. (2022)
